Reference: US6106844A, “Immunomodulatory peptides of vespid antigen 5” (The Rockfeller University, priority 1998, dated 2000)

What was measured:
[1] = target: T1, n-Dol m 5.01 (Dolichovespula maculata, UniProt P10736); experiment: Antibody response by direct ELISA of mice immunized with recombinant white faced hornet Ag5, wells coated with n-Dol m 5.01; assay type: in vivo; settings: week five sera after three i.p. immunizations with rDol m 5.02 and alum
T1 construct: from tissue; host or cells: natural protein
T1 sequence (P10736 24-227): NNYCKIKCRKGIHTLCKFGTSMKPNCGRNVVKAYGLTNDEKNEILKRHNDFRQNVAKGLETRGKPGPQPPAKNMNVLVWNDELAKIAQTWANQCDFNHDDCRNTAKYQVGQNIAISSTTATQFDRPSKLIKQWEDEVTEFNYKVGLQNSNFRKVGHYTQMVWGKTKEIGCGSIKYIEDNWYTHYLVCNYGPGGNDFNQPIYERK
Protocol: (§1) Antibody response in mice of different haplotypes to recombinant hornet Ag5. Five strains of mice were immunized with recombinant (r) white faced hornet Ag5 and alum as adjuvant. […] The antibody titers (the reciprocal of the dilution yielding 50% of maximum signal extrapolated from ELISA curves in wells coated with r-Dol m 5.02 or n-Dol m 5.01) of these sera for n-(natural) and r-Ag5 are given in Table 3.
(§2) *Sera are from week five bleeding after three intraperitoneal
(§3) immunizations with 0.2 ml of 10 μg/ml rDol m 5.02 and alum (5 μg/ml
(§4) in 0.05 m sodium phosphate buffer, pH 6.2, on weeks 0, 2, and 4.

[2] = target: T2, r-Dol m 5.02 (Dolichovespula maculata, UniProt P10737); experiment: Antibody response by direct ELISA of mice immunized with recombinant white faced hornet Ag5, wells coated with r-Dol m 5.02; assay type: in vivo; settings: for Half maximal Ab titer r-Dol m 5.02: week five sera after three i.p. immunizations with rDol m 5.02 and alum; for antibody responder status: alum as adjuvant
T2 construct: made in house
T2 sequence (P10737 11-215): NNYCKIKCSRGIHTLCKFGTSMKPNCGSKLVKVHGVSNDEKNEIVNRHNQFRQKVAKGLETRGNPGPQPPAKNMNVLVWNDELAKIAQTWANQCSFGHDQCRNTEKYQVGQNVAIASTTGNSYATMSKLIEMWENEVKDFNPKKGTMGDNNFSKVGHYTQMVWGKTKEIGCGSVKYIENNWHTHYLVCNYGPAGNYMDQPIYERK
Protocol: as §1, §2, §3, §4

[3] = system: r-Ag5 specific spleen cells from C3H/He mice; experiment: In vitro proliferation assay, spleen cells of r-Ag5-immunized C3H/He mice; assay type: cell-based; settings: spleen cells from mice immunized 5 times with rAg5; blank 3130 cpm
Protocol: FIG. 13. Stimulation index profile of C3H/He mice spleens after 5 immunizations with r-Ag5. In vitro proliferation assays were performed with peptides at three concentrations: 1×10^-5 M (open bar), 1.25×10^-6 M ("uphill" hatch), and 1.56×10^-7 M ("downhill" hatch). The corresponding concentrations of recombinant Antigen 5 were 1.0×10^-6 M, 1.25×10^-7, and 1.56×10^-8 M. The blank was 3130 cpm.
The peptides of the invention can be tested in a proliferation assay for T cell responses. Generally, lymphocytes from a sensitized host are obtained. The host can be a mouse that has been immunized with a vespid venom antigen 5, or with a crossreactive protein, such as testes specific protein. Using techniques that are well known in the art, T lymphocyte response to the peptide can be measured in vitro. In a specific embodiment, infra, T cell responses are detected by measuring incorporation of ^3 H-thymidine, which increases with DNA synthesis associated with proliferation. Cell proliferation can also be detected using an MTT assay [Mossman, J. Immunol. Methods, 65:55-63,(1983); Niks and Otto, J. Immunol. Methods, 130:140-151 (1990)]. […] Alternatively, mRNA for lymphokines can be detected, e.g., by amplification [see Brenner, et al., Biotechniques, 7:1096 (1989)] or in situ hybridization [see, e.g., Kasaian and Biron, J. Immunol., 142:1287 (1989)]. […]

B1: r-Ag5: recombinant white faced hornet (Dolichovespula maculata) antigen 5 form 2, Dol m 5.02 (protein)
chain: T2 sequence (P10737 11-215)
Half maximal Ab titer n-Dol m 5.01 ([1]; ASW/Sn mice (haplotype s)): 1 × 10^5
Half maximal Ab titer n-Dol m 5.01 ([1]; BALB/c byj mice (haplotype d)): 4 × 10^4
Half maximal Ab titer n-Dol m 5.01 ([1]; C3H/He mice (haplotype k)): 2 × 10^3
Half maximal Ab titer n-Dol m 5.01 ([1]; C57B1/6 mice (haplotype b)): 2 × 10^1
Half maximal Ab titer n-Dol m 5.01 ([1]; P/J mice (haplotype p)): 1 × 10^4
Half maximal Ab titer r-Dol m 5.02 ([2]; ASW/Sn mice (haplotype s)): 1 × 10^5
Half maximal Ab titer r-Dol m 5.02 ([2]; BALB/c byj mice (haplotype d)): 8 × 10^4
antibody responder status ([2]; BALB/v byj, ASW/Sn, C3H/He, and P/J mice): high antibody responders
Half maximal Ab titer r-Dol m 5.02 ([2]; C3H/He mice (haplotype k)): 6 × 10^3
Half maximal Ab titer r-Dol m 5.02 ([2]; C57B1/6 mice (haplotype b)): 1 × 10^2
antibody responder status ([2]; C57B1/6 mice): poor antibody responder
Half maximal Ab titer r-Dol m 5.02 ([2]; P/J mice (haplotype p)): 2 × 10^4
Stimulation Index C3H/He [3]: 12.3
